A word on the Vmax: it is the top rate of the reaction or transport when substrate is in excess. As usually defined, the Km is the substrate concentration at which the rate is half of its maximum.

The results in this text go back to patent US7264954B2, “Lipoxygenase” (Novozymes A/S, priority 2001, dated 2007).

One data set has as its target M. salvinii lipoxygenase (Nakataea oryzae, UniProt P0CT92). To be noted: per substrate.
For another data set, the target named is T1, soybean lipoxygenase (Glycine max, UniProt P08170).
T1 sequence (P08170 1-839): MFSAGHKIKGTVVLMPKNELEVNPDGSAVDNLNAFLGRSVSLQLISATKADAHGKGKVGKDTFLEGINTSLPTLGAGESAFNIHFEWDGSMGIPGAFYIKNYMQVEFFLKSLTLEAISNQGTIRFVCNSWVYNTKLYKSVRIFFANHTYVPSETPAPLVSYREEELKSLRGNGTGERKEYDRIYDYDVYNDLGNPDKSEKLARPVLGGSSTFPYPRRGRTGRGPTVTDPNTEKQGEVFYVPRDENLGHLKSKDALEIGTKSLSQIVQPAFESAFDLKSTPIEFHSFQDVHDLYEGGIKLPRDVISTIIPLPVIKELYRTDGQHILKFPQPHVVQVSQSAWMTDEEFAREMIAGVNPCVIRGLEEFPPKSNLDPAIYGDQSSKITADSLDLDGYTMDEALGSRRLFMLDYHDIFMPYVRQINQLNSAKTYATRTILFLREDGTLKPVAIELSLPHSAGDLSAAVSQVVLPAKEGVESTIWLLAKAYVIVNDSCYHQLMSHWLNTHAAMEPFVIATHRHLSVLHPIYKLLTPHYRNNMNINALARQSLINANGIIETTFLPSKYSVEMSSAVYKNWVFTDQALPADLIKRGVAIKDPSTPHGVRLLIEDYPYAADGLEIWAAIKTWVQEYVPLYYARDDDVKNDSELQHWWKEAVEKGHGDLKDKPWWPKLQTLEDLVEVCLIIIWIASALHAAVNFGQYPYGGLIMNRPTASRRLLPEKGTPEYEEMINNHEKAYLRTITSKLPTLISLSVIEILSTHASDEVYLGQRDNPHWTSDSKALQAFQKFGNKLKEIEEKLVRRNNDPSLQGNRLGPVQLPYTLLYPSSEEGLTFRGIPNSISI
Nature of the data set: Substrate kinetic parameters with soybean lipoxygenase (comparison). It counts as biochemical.

Data set [1] relates to CCCCC/C=C\C/C=C\CCCCCCCCOC(C)=O. Nature of the data set: purified protein, by the assay type.
Data set [2] deals with CCCCC/C=C\C/C=C\C/C=C\C/C=C\CCCC(=O)O. Nature of the data set: purified protein, by the assay type.
The test system of data set [3] is CCCCC/C=C\C/C=C\CCCCCCCC(=O)Cl. Nature of the data set: purified protein, by the assay type.
Data set [4] deals with CCCCC/C=C\C/C=C\CCCCCCCCO
Nature of the data set: purified protein, by the assay type.

Data set [5] relates to CCCCC/C=C\C/C=C\CCCCCCCC(=O)OC. Nature of the data set: purified protein, by the assay type.
The nature of data set [6]: Bleaching assay, β-carotene pigment solution. It counts as biochemical. Here is the method:
(§1) Bleaching effect by lipoxygenase was examined spectrophotometrically at 25° C. by following the absorbance at 470 nm. The pigment solution was prepared as follows. 150 ul of stock pigment solution (1 mg each pigment in 1 ml chloroform) was evaporated to be dry. Then 30 ml of the buffer (50 mM KH2PO4NaHPO4, pH 7.0) with 0.3% of Tween 20 was added slowly and the pigment was dissolved.
(§2) The bleaching effect of M. salvinii LOX was examined. Soybean L1 was included for comparison. β-carotene and astaxanthin were used as pigments.

Data set [7] is described as follows: Bleaching assay, astaxanthin pigment solution. The format is biochemical. As for the experimental part:
as §1, §2

Sequence of M. salvinii lipoxygenase (P0CT92 18-617): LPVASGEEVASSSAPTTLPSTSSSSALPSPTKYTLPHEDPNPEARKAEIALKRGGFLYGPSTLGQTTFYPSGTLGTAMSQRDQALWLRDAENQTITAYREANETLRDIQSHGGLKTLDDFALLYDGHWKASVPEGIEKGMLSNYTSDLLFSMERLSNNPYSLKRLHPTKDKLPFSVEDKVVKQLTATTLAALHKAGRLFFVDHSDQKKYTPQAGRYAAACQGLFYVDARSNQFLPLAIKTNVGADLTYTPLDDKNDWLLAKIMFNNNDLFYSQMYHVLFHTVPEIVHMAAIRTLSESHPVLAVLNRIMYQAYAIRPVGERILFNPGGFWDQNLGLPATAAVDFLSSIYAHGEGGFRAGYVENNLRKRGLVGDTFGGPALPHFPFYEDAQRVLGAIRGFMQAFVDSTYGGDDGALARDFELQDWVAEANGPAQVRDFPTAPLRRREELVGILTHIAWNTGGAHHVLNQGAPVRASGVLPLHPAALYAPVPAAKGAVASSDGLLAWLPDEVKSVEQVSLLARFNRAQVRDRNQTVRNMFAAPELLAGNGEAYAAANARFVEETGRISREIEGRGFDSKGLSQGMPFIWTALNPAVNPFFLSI

On to `CCCCC/C=C/C/C=C/CCCCCCCC(=O)O` [Linoelaidic acid], for which, on M. salvinii lipoxygenase, the KM entry is given as “No activity”, the Vmax result is recorded as “No activity” and the Vmax/KM entry is “No activity”.
`CCCCC/C=C\C/C=C\CCCCCCCC(=O)O` [Na linoleate]: at M. salvinii lipoxygenase, the Km was found to be 0.41 µM and the Vmax was 2.07 µmol/min/mg.
Take `CC/C=C\C/C=C\C/C=C\CCCCCCCC(=O)O` [Linolenic acid]: the Km at M. salvinii lipoxygenase was 0.4 µM.
`CCCCC/C=C\C/C=C\CCCCCCCC(=O)O` [Linoleic acid]: on M. salvinii lipoxygenase, the Km was 1 µM and the Vmax amounted to 2.63 µmol/min/mg. Moreover, at soybean lipoxygenase, the Km was 230 µM and the Vmax came out at 12.3 µmol/min/mg.
In the case of “M. salvinii lipoxygenase (Nakataea oryzae)”, the Km amounted to 9 µM in data set [1]; 5.5 µM in [2]; 12 µM in data set [3]; 8 µM in data set [4]; 30 µM in data set [5]. Also, the Vmax in data set [1] was found to be 0.77 µmol/min/mg; in data set [2], 2.44 µmol/min/mg; in data set [3], 0.97 µmol/min/mg; in data set [4], 1.4 µmol/min/mg; in data set [5] it was 0.82 µmol/min/mg. The Vmax/Km in [1] was 85000 µL/min/mg; in data set [2], 446000 µL/min/mg; in data set [3] it was 80000 µL/min/mg; in data set [4], 175000 µL/min/mg; in [5], 26000 µL/min/mg.

B1: Soybean L1: Soybean lipoxygenase (type I-B) (cat.# L7315) supplied by Sigma, included for comparison (protein, UniProt P08170 1-839, looked up)
Seed linoleate …: MFSAGHKIKGTVVLMPKNELEVNPDGSAVDNLNAFLGRSVSLQLISATKADAHGKGKVGKDTFLEGINTSLPTLGAGESAFNIHFEWDGSMGIPGAFYIKNYMQVEFFLKSLTLEAISNQGTIRFVCNSWVYNTKLYKSVRIFFANHTYVPSETPAPLVSYREEELKSLRGNGTGERKEYDRIYDYDVYNDLGNPDKSEKLARPVLGGSSTFPYPRRGRTGRGPTVTDPNTEKQGEVFYVPRDENLGHLKSKDALEIGTKSLSQIVQPAFESAFDLKSTPIEFHSFQDVHDLYEGGIKLPRDVISTIIPLPVIKELYRTDGQHILKFPQPHVVQVSQSAWMTDEEFAREMIAGVNPCVIRGLEEFPPKSNLDPAIYGDQSSKITADSLDLDGYTMDEALGSRRLFMLDYHDIFMPYVRQINQLNSAKTYATRTILFLREDGTLKPVAIELSLPHSAGDLSAAVSQVVLPAKEGVESTIWLLAKAYVIVNDSCYHQLMSHWLNTHAAMEPFVIATHRHLSVLHPIYKLLTPHYRNNMNINALARQSLINANGIIETTFLPSKYSVEMSSAVYKNWVFTDQALPADLIKRGVAIKDPSTPHGVRLLIEDYPYAADGLEIWAAIKTWVQEYVPLYYARDDDVKNDSELQHWWKEAVEKGHGDLKDKPWWPKLQTLEDLVEVCLIIIWIASALHAAVNFGQYPYGGLIMNRPTASRRLLPEKGTPEYEEMINNHEKAYLRTITSKLPTLISLSVIEILSTHASDEVYLGQRDNPHWTSDSKALQAFQKFGNKLKEIEEKLVRRNNDPSLQGNRLGPVQLPYTLLYPSSEEGLTFRGIPNSISI
For B1, the values for the ΔA470/min in data set [6] (β-carotene) and in data set [7] (Astaxanthin) were 0.00005 and 0.0021, respectively. For the same molecule, in [6] (β-carotene and astaxanthin pigment solutions), the “bleaching effect (in words)” value is given as “little effect on bleaching”. The LOX activity in data set [6] (β-carotene experiment) amounted to 1.962; in data set [7] (Astaxanthin experiment), 2.018. Besides, the “absorbance at 470 nm” value in [6] (β-carotene, time 0 min, 25° C., pH 7.0) is 0.3575; in data set [6] (β-carotene, time 0.4 min) it was 0.3616; in [6] (β-carotene, time 0.8 min) it was 0.3601; in [6] (β-carotene, time 1.2 min), 0.362; in data set [6] (β-carotene, time 1.4 min), 0.3602; in [6] (β-carotene, time 1.8 min) it was 0.3602. Also, the “absorbance at 470 nm” value in data set [6] (β-carotene, time 2.2 min) came out at 0.3595; in data set [6] (β-carotene, time 2.6 min) it was 0.3595; in data set [6] (β-carotene, time 3 min), 0.3594; in data set [7] (Astaxanthin, time 0 min, 25° C., pH 7.0) it was 0.5026; in [7] (Astaxanthin, time 0.4 min), 0.5029; in data set [7] (Astaxanthin, time 0.8 min), 0.505. Further, the “absorbance at 470 nm” value in data set [7] (Astaxanthin, time 1 min) is 0.5025; in [7] (Astaxanthin, time 1.4 min) it was 0.5013; in data set [7] (Astaxanthin, time 1.8 min) it was 0.4993; in [7] (Astaxanthin, time 2.2 min) it was 0.4985; in data set [7] (Astaxanthin, time 2.6 min), 0.4986; in data set [7] (Astaxanthin, time 3 min), 0.498.
